Results from the nanobody polyreactivity screen of Harvey et al. (2022).

Test: yeast display, Sf9 membrane polyspecificity reagent, FACS + sequencing; frameworks hold sequencing errors
How it was run: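 A synthetic nanobody library was expressed on Saccharomyces cerevisiae BJ5465 by galactose induction for 36–48 hours. The library was stained for 1 hour at 4 °C with 10% biotinylated, detergent-solubilized Sf9 membrane reagent and enriched with streptavidin microbeads before FACS. Low and high (top ~1%) gates were set on anti-HA fluorescence for expression and streptavidin fluorescence for reagent binding, and each polyreactivity label reflects the gate of origin.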

Sequence	polyreactivity (PSR sort gate)
QVQLVESGGGLVQAGGSVRLSCAASGSICFYAMGWYRQAPGKERELVAAISWRGGSTYYADSVKGRFTISRDNAKNTVYLQMNSLKPEDTAVYYCAKATRRYDVYTYGYWGQGTQVTVSS	high polyreactivity
QVQLVESGGGLVQAGGSLRLSCAASGFTFGWYAMGWYRQAPGKERELVAAIDESGGTTYYADSVKGRFTISRDNAKNTVYLQMNSLKPEDTAVYYCAADKKTPYEDDYWGQGTQVTVSS	low polyreactivity
QVQLVESGGGLGQAGGSLRLSCAASGSIFSANAMGWYRQAPGKERELVASITGDGSTNYADSVKGRFTISRDNAKNTVYLQMNSLKPEDTAVYYCAADIGSWYDYWGQGTQVTVSS	low polyreactivity
QVQLVESGGGLVQAGGSLRLSCAASGRIFQYYVMGWYRQAPGKERELVARITYIGGGTYYADSVKGRFTMSRDNAKNTVYLQMNSLKPEDTAVYYWYARYPWREWEDDYWGQGTQVTVSS	low polyreactivity
QVQLVESGGGLVQAGCSLRLSCAASGFIFRLYTMGWYRQAPGKERELVARITRGDSTIYADSVKGRFTISRDNAKNTVYLQMNSLKPEDTAVYYCAKLHRGLPYYSFYRGYYYWGQGTQVTVSS	low polyreactivity
QVQLVESGGGLVQEGGSLRLSCAASGSTFHSYAMGWYRQAPGKERELVAGINRTGGSTYYADSVKGRFTISRDNAKNTVYLQMNSLKPEDTAVYYCAAVSYYASDYRYDYWGQGTQVTVSS	low polyreactivity
QVQLVESWAGIVQAGGSLRVSCAASGSTFDRYAMGWYRQAPGKERELVAAISWSAGRTYYADSVKGRFTISRDNAKNTVYLQMNSLKPDDTAVYYCAADQIVSGTYDYYWGQGTHVTVSS	low polyreactivity
QVQLVESGGGLVQAGGSLRLSCAASGRIFGIYAMGWYRQAPGKERELVAVITRGDRTYADSVKGRFTISRDNAKNTVYLQMNSLKTEDTAVYYCNADTGYRFDYWGQGTQVTVSS	high polyreactivity
QVQLEETGRGLVQAGGSLRISSAASGGIFAHYVMGWYRQAPGKARELVAAISASGGSTYYADSVKGRFTISRDNAKNTVYLQMNSLKPEDTAVYYCAAYYLAWFADRYKTVGSAMDYWGQVTQVTVSS	low polyreactivity
QVQLVESGGGLVQAGGSLRLSCAASGRTFYEYAMGWYRQAPGKERELVAAITIDGSTNYADSVKGRFTISRDNAKNTVYLQMNSLKPEDTAVYYCNARYLLYHGQHYRPYNYWGQGTQVTVSS	high polyreactivity
QVQLGESGGGLVQAGGSLRLSCAASGSIYVNAMGWYRQAPRKERELVAVISKSGGSTYYADSVKGRFTISRDNAKNTVYLQMNSLKPEETAVYYCAASRPSPGPRYGYWGQGTQVTVSS	high polyreactivity
QVQLVESWGGLVQAGGSLRLSCAASGINFQNYDMGWYRQAPGKERELVAAINGSGGSTYYADSVKGRFTISRDNANNTVYLQMNSLKPEDTAVYYCNAVWEYYGKSDYWGQGTQVTVSS	low polyreactivity
QVQLVESGGGLVQAGGSLRLSCAASGLTFYGYGMGWYRQAPGKERELVASITSGGNTYYADSVKGRFTISRDNAKNTVYLKMNSLKPEDTAVYYCAVTAIALYYSSGYYWGQGTQVTVSS	low polyreactivity
QVQLVESGGGLVQGGGSLRLSCAASGFTFYYNAMGSYRQAPGKERELVADITSGGDTYYADSVKGRFTISRDNAKNTVYLQRNSLKPEDTAVYYCAAELWGLFDYWGQGTEVTVSS	low polyreactivity
QVQLVESGGGLVQAGGSLLLSCAASGRTFGYYAMGWYRQAPGKETELVAAISSGGGTYYADSVKGRFTISRDNAKNTVYLQMNSLKPEDTAVYYCAATGWVYWGQFDYWGQGTQVTVSS	low polyreactivity
QVQLVESGGGLVQAGGSLRLSCAASGITFWDYAMGWYRQAPGKERELVAGITSRGGSTYYADSVKGRFTISRDNAKNTVYLQMNSLKPADTGVNSCNAYRLHSRRYYYWGQGTQVTVSS	low polyreactivity
QVQLVESGGGLVQAGGSLRLICAASGSIFGHNAMGWYRQAPGKERELVAAISRGTRTNYADSVKGRFTISRDNEKNTVYLQMNSLKPEDTAVYYCNLQPGRGPYVGRKYGYWGQGTQVTVSS	high polyreactivity
QVQLVESGGGLVQAGGSLRLSCAASGNIFLYYDMGWYRQAPGKERELVADIDSSGASTYYADSVKGRFTISRDNAKNTVYLQMNSLKPEDTAVYYCAAELHWWYAGYEYGYWGQGTQVTVSS	low polyreactivity
QVQLVESGGGLVQAGGSLRLSCAASGYTFYVYAMGWYRQAPGKERELVAAIRSGGTTYYADSVKGRFTISRDNAKNTVYLQMNSLKPEDTAVYYCAAVSSDYPFEGNYWGQGTQVTVSS	low polyreactivity
LVQLQESGGGLVQAGGSLRLSCAASGTISPGGYMGWYRQAPGKERELVASINVGGSTNYADSVKGRFTISRDNAKNTVYLQMNSLKPEDTAVYYCAVWGRNRLQLSYWGQGTQVTVSS	low polyreactivity
QVQLVDSGGGLVQAGGSLRLICAASGFIFGKYAMGWYRQAPGKEWEFVAAITGNGGSTYYADSVKGRFTISRDNAKNTVYLQMNSLKPEDTAVYYCNADRGYRRRSGMDYWGQGTQLTVSS	low polyreactivity
QVQRVESGGGLVQAGGSLRLSCAASGRTFGYNAMGWYRQAPGKERELVAAISSSGGSTYYADSVKGRFTISRDNAKNTVYLQMNSLKPEDTAVYYCATQGYSWAHGSDYWGQGTQVTVSS	low polyreactivity

Sequence	polyreactivity (PSR sort gate)
QVQLVESGGGLVQAGGSLRLSCAASGSTFVIYAMGWYRQAPGKERELVAAITFSGGRTYYADSVKGRFTISRDNAKNTVYLQMNSLKPEDTAVYYCNARHRNLAEYDYWGQGTQVTVSS	low polyreactivity
QVQLVESGGGLVQAGGSLRLSCAASGRIFRYYAMGWYRQAPGKERELVAAISDSSGSTYYADSVKGRFTISRDNAKNSVYLQMNCLKPEDTAVYYCRYYFGSGYYYWGEGTQVTVSS	high polyreactivity
QVQLVESGGGLVPAGGSLRLSCAASGFIILYYAMGWYRHEPGKERELVAAITTRGGRTYYADSVKGRFTISRDNAKNTVYLQMYSLKPEDTALYYCAADHLYWGLEDESWGQGTQVTVSS	low polyreactivity
QVQLVESGGGLVQAGGSLRLSCAASGSIFTLYAMGWYRQAPGKERELVADITFSGGTTYYADSVKGRFTISRDNAKNTVYLQMNSLKPEDTAVYYCATTYYQLYVQGYEYWGQGTQVTVSS	high polyreactivity
QVQLVESGGGLVQAGGSLRLSCAASGRIFTWYAMGWYRQAPGKERELVAAISSAGRTYYADSVKGRFTISRDNAKNTVYLQMNSLKPEDTAVYYCAKVSKYRHFYTFDYWGQGTQVTVSS	high polyreactivity
QVQLVESGGGFVQAGGSLRLICAASGSIDYNAMGWYRQAPGKERELVAAITQRGGRTYYADSVKGRFTISRDNAKNTVYLQMNSLKPEDTAVYYCNTKGNYGLGYKNYYWGQGTQVTVSS	high polyreactivity
QVQLVESGGGLVQAGGSLRLSCAASGTTFGINAMGWYRQAPGKERELVASITRRGGSTYYADSVKGRFTISRDNAKNTVYLQMNSLKPEDTAVYYCNKTYRYGTPLYDYWGQGTQVTVSS	high polyreactivity
QVQLVESGGGLVQAGGSLRLSCAASGRTIDWYAMGWYRQAPGKVRELVAGITYSGGSTYYADSVKGRFTISRDIANKTVYFQMNSLKPEDTAVYYCAAAKSYRSGSWYEYWGQGTQVTVSS	high polyreactivity
QVQLVESGGGLVQAGGSLRLSCAASGLTFQSYAMGWYRQAPGKERELVAAISRRSGSTYYADSVKGRFTISRDNAKNTVYLQMNSLKPEDTAVYYCTTRRGERGYWGQGTQVTVSS	high polyreactivity
QVQLVESGGGLVQAGGSLRLSCAASGSTFGWNAMGSYRQAPGKERELVAAISSSGGITYYADSVKGRFTISRDNAKNTVYLQMNSLKPEDTAVYYCAARAINTWFRSGVDYGYYLTMDYWGQGTQVTVSS	low polyreactivity
QVQLVESGGGLVQAGGSLRLSCAASGNIFAYYAMGWYRQAPGKERELVAAITDSGGNTFYADSVKGRFTISRDNAKNTVYLQMNSLKPEDTAVYYCAVRHRYTRAYWGRDYWGQGTQVTVSS	low polyreactivity
QVQLVESGGGFVQAGGSLRLSSAASGRTFDTNAMGWYRQSPGKERELVAAISWSAGRTYYADSVKGRFTISRDNAKNTVYLQMNSLKPEDTAVYYCAADSFTPDYYSHDYCGQGTQVTVSS	low polyreactivity
QDQLVESRGGLVQAGGSLRLRCAASGRIFTRYAMGWYRQAPRKERELVAAITYNGGSTYYADSVKGRFTISRDNAKNTVYLQMNSLKPEDTAVYYCNAVYMSWFGLYAGFDYWGQGTQVTVSS	high polyreactivity
QVQLVESGGGLDQAGGSLRLSCAASGYTYLRNAMGWSRQAPGKERELVAAISYSGGGTYYADSVKGRFTISRDNAKNTVYLQMHSLKPEDTAVYYCAADRGGLRWFWQVLYDYWGQGTQVTVSS	low polyreactivity
QVQLVESGGGLVQAGGSLRLSCAASGITFWYYAMGWYRQAPGKERELVAVISRGGSTYYADSVKGRFTISRDNAKNTVYLQMNSLKPEDTAVYYCAADVSVSGYYYWGQGTQVTVSS	high polyreactivity
QVQLVESAGGLVQAGGSLRLSCYASGRIFPAYAMGWYRQAPGKERELVASIRRGGITYADSVKGRFTISRDNAKNTVYLQMNSLKPEDTAVYYCNADSRGWGYHMDYWGQGTQVTVSS	low polyreactivity
QVQLVESGGGLVQAGGSLRLSCAASGITFYVYDMGWYRQAPGKERELVAAISWSGGSTYYADSVKGRFTISRDNAKNTVYLQMNSLKPEDTAVYYCAAEVEYWYELYDYWGQGTQVTVSS	high polyreactivity
QVQLVESGGALVQAGGSLRLSCAASGRTFNRYGMGRYRQAPGEERELVASITSGGSTNYADSVKGRFTISRDNAKNTVFLQMNSLKPEDTAVYYCAKRSIGRYPRTYDYWGQGTKVTVSS	low polyreactivity
QVQLVESGGGLVQAGGSLRLSCAASGSIFYGYARGWYRQAPGKERELVASITSSGGSTYYADSVKGRFTISRDNAKNTDYLQMNSLKPEDSAVYYCAVIGYHYSAISPPSQTRQGYDYWGQVTQVTVSS	low polyreactivity
QVQLVESGGGLVQAGGSLRLSCAASGSIFRANALGWYRPAPGKERELVAAISASGGRTYYADSVKGRFTISRDNAKNTVYLQMNSLKPEDTAVYYCNAYYGYLYHYTYDYWGQGTQVTVSS	high polyreactivity
QVQLVESGGGLVQAGGSLRLSCAASGITFGAYAMGWYRQAPGKERELVASISSSGSTYADSVKGRFTISRDNAKNTVYLQMNSLKPEDTGVYYCNAVGFQANDYNYWGQGTQVTVSS	low polyreactivity
